Test results as given in patent US20110294748A1 (Janssen / Centocor, published 2011).

What follows are binders tested against T1, soluble IGF1R (sIGF1R), extracellular domain of human insulin-like growth factor 1 receptor, carboxy-terminal … (human, UniProt P08069 31-932) (assay: ELISA, culture supernatant on 2 µg/ml coated sIGF1R, Attophos detection).
T1 construct: Bought from R&D Systems; GenBank NP-000866 is printed for the whole receptor; also called IFG1R
Method: The binding of purified peptide-AP fusion proteins to sIGF1R was assessed using ELISA against immobilized sIGF1R. Briefly, bacteria transformed with each peptide-AP fusion expression vector were grown overnight and the following day the cultures were clarified by centrifugation at 4,500 rpm, 4° C. The supernatants were collected and 75 μl of each supernatant was assayed for binding to 2 μg/ml sIGF1R immobilized on ELISA plates. The bound peptides were detected using the Attophos Substrate (Roche, Indianapolis, Ind.) following the manufacturer's recommendation and read using a Molecular Devices M5 plate reader.

Binder	binding result
peptide-Alkaline phosphatase-His6 fusion protein of clone 8 (other, Tested as bacterial culture supernatant; also called peptide-AP fusion clone 8) PVCPSFCYDQYVCPTTPEMPVLENRAAQGDITTPGGARRLTGDQTAALRDSLSDKPAKNIILLIGDGMGDSEITAARNYAEGAGGFFKGIDALPLTGQYTHYALNKKTGKPDYVTDSAASATAWSTGVKTYNGALGVDIHEKDHPTILEMAKAAGLATGNVSTAELQGATPAALVAHVTSRKCYGPSATSEKCPGNALEKGGKGSITEQLLNARADVTLGGGAKTFAETATAGEWQGKTLREQAQTRGYQLVSDAASLNSVTEANQQKPLLGLFADGNMPVRWLGPKATYHGNIDKPAVTCTPNPQRNDSVPTLAQMTDKAIELLSKNEKGFFLQVEGASIDKQNHAANPCGQIGETVDLDEAVQRALEFAKKEGNTLVIVTADHAHASQIVAPDTKAPGLTQALNTKDGAVMVMSYGNSEEDSQEHTGSQLRIAAYGPHAANVVGLTDQTDLFYTMKAALGLKVPGGSGGGSGGGSGGGSGTPEMPVLENRAAQGDITTPGGARRLTGDQTAALRDSLSDKPAKNIILLIGDGMGDSEITAARNYAEGAGGFFKGIDALPLTGQYTHYALNKKTGKPDYVTDSAASATAWSTGVKTYNGALGVDIHEKDHPTILEMAKAAGLATGNVSTAELQGATPAALVAHVTSRKCYGPSATSEKCPGNALEKGGKGSITEQLLNARADVTLGGGAKTFAETATAGEWQGKTLREQAQTRGYQLVSDAASLNSVTEANQQKPLLGLFADGNMPVRWLGPKATYHGNIDKPAVTCTPNPQRNDSVPTLAQMTDKAIELLSKNEKGFFLQVEGASIDKQNHAANPCGQIGETVDLDEAVQRALEFAKKEGNTLVIVTADHAHASQIVAPDTKAPGLTQALNTKDGAVMVMSYGNSEEDSQEHTGSQLRIAAYGPHAANVVGLTDQTDLFYTMKAALGLKVPGNSHHHHHH	binds
peptide-Alkaline phosphatase-His6 fusion protein of clone 6 (other, Tested as bacterial culture supernatant; also called peptide-AP fusion clone 6) AECEWPWLTLELCQSTPEMPVLENRAAQGDITTPGGARRLTGDQTAALRDSLSDKPAKNIILLIGDGMGDSEITAARNYAEGAGGFFKGIDALPLTGQYTHYALNKKTGKPDYVTDSAASATAWSTGVKTYNGALGVDIHEKDHPTILEMAKAAGLATGNVSTAELQGATPAALVAHVTSRKCYGPSATSEKCPGNALEKGGKGSITEQLLNARADVTLGGGAKTFAETATAGEWQGKTLREQAQTRGYQLVSDAASLNSVTEANQQKPLLGLFADGNMPVRWLGPKATYHGNIDKPAVTCTPNPQRNDSVPTLAQMTDKAIELLSKNEKGFFLQVEGASIDKQNHAANPCGQIGETVDLDEAVQRALEFAKKEGNTLVIVTADHAHASQIVAPDTKAPGLTQALNTKDGAVMVMSYGNSEEDSQEHTGSQLRIAAYGPHAANVVGLTDQTDLFYTMKAALGLKVPGGSGGGSGGGSGGGSGTPEMPVLENRAAQGDITTPGGARRLTGDQTAALRDSLSDKPAKNIILLIGDGMGDSEITAARNYAEGAGGFFKGIDALPLTGQYTHYALNKKTGKPDYVTDSAASATAWSTGVKTYNGALGVDIHEKDHPTILEMAKAAGLATGNVSTAELQGATPAALVAHVTSRKCYGPSATSEKCPGNALEKGGKGSITEQLLNARADVTLGGGAKTFAETATAGEWQGKTLREQAQTRGYQLVSDAASLNSVTEANQQKPLLGLFADGNMPVRWLGPKATYHGNIDKPAVTCTPNPQRNDSVPTLAQMTDKAIELLSKNEKGFFLQVEGASIDKQNHAANPCGQIGETVDLDEAVQRALEFAKKEGNTLVIVTADHAHASQIVAPDTKAPGLTQALNTKDGAVMVMSYGNSEEDSQEHTGSQLRIAAYGPHAANVVGLTDQTDLFYTMKAALGLKVPGNSHHHHHH	binds

The next lines start with the values.

binding result	Binder
binds	peptide-Alkaline phosphatase-His6 fusion protein of clone 9 (other, Tested as bacterial culture supernatant; also called peptide-AP fusion clone 9) FTCAVYSLSELDCRDTPEMPVLENRAAQGDITTPGGARRLTGDQTAALRDSLSDKPAKNIILLIGDGMGDSEITAARNYAEGAGGFFKGIDALPLTGQYTHYALNKKTGKPDYVTDSAASATAWSTGVKTYNGALGVDIHEKDHPTILEMAKAAGLATGNVSTAELQGATPAALVAHVTSRKCYGPSATSEKCPGNALEKGGKGSITEQLLNARADVTLGGGAKTFAETATAGEWQGKTLREQAQTRGYQLVSDAASLNSVTEANQQKPLLGLFADGNMPVRWLGPKATYHGNIDKPAVTCTPNPQRNDSVPTLAQMTDKAIELLSKNEKGFFLQVEGASIDKQNHAANPCGQIGETVDLDEAVQRALEFAKKEGNTLVIVTADHAHASQIVAPDTKAPGLTQALNTKDGAVMVMSYGNSEEDSQEHTGSQLRIAAYGPHAANVVGLTDQTDLFYTMKAALGLKVPGGSGGGSGGGSGGGSGTPEMPVLENRAAQGDITTPGGARRLTGDQTAALRDSLSDKPAKNIILLIGDGMGDSEITAARNYAEGAGGFFKGIDALPLTGQYTHYALNKKTGKPDYVTDSAASATAWSTGVKTYNGALGVDIHEKDHPTILEMAKAAGLATGNVSTAELQGATPAALVAHVTSRKCYGPSATSEKCPGNALEKGGKGSITEQLLNARADVTLGGGAKTFAETATAGEWQGKTLREQAQTRGYQLVSDAASLNSVTEANQQKPLLGLFADGNMPVRWLGPKATYHGNIDKPAVTCTPNPQRNDSVPTLAQMTDKAIELLSKNEKGFFLQVEGASIDKQNHAANPCGQIGETVDLDEAVQRALEFAKKEGNTLVIVTADHAHASQIVAPDTKAPGLTQALNTKDGAVMVMSYGNSEEDSQEHTGSQLRIAAYGPHAANVVGLTDQTDLFYTMKAALGLKVPGNSHHHHHH
binds	peptide-Alkaline phosphatase-His6 fusion protein of clone 11 (other, Tested as bacterial culture supernatant; also called peptide-AP fusion clone 11) HTCFYPTLMPPELCFDTPEMPVLENRAAQGDITTPGGARRLTGDQTAALRDSLSDKPAKNIILLIGDGMGDSEITAARNYAEGAGGFFKGIDALPLTGQYTHYALNKKTGKPDYVTDSAASATAWSTGVKTYNGALGVDIHEKDHPTILEMAKAAGLATGNVSTAELQGATPAALVAHVTSRKCYGPSATSEKCPGNALEKGGKGSITEQLLNARADVTLGGGAKTFAETATAGEWQGKTLREQAQTRGYQLVSDAASLNSVTEANQQKPLLGLFADGNMPVRWLGPKATYHGNIDKPAVTCTPNPQRNDSVPTLAQMTDKAIELLSKNEKGFFLQVEGASIDKQNHAANPCGQIGETVDLDEAVQRALEFAKKEGNTLVIVTADHAHASQIVAPDTKAPGLTQALNTKDGAVMVMSYGNSEEDSQEHTGSQLRIAAYGPHAANVVGLTDQTDLFYTMKAALGLKVPGGSGGGSGGGSGGGSGTPEMPVLENRAAQGDITTPGGARRLTGDQTAALRDSLSDKPAKNIILLIGDGMGDSEITAARNYAEGAGGFFKGIDALPLTGQYTHYALNKKTGKPDYVTDSAASATAWSTGVKTYNGALGVDIHEKDHPTILEMAKAAGLATGNVSTAELQGATPAALVAHVTSRKCYGPSATSEKCPGNALEKGGKGSITEQLLNARADVTLGGGAKTFAETATAGEWQGKTLREQAQTRGYQLVSDAASLNSVTEANQQKPLLGLFADGNMPVRWLGPKATYHGNIDKPAVTCTPNPQRNDSVPTLAQMTDKAIELLSKNEKGFFLQVEGASIDKQNHAANPCGQIGETVDLDEAVQRALEFAKKEGNTLVIVTADHAHASQIVAPDTKAPGLTQALNTKDGAVMVMSYGNSEEDSQEHTGSQLRIAAYGPHAANVVGLTDQTDLFYTMKAALGLKVPGNSHHHHHH
